Tested on: Escherichia coli TOP10
Experiment: shrunken log2 fold change of peptide-encoding DNA abundance (4.5 h post-induction vs induction); higher = less antimicrobial activity (less host growth inhibition)
Details: time post-induction: 4.5 h; library: site-saturation at positions 5, 18, 19, 20
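Further: peptides expressed intracellularly from a pBAD plasmid library in pooled LB shake-flask culture, induced with 0.3% L-arabinose, DNA abundance read by NGS, three biological replicates, DESeq2 with apeglm shrinkage.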

Sequence: RRIRLRPPRLPRPRPRPFNVPRP
- shrunken log2 fold change: -0.485

Sequence: RRIRCRPPRLPRPRPRPHSSPRP
- shrunken log2 fold change: -0.823

Sequence: RRIRMRPPRLPRPRPRPFENPRP
- shrunken log2 fold change: 0.00631

Sequence: RRIRSRPPRLPRPRPRPPVRPRP
- shrunken log2 fold change: 0.337

Sequence: RRIRRRPPRLPRPRPRPQCLPRP
- shrunken log2 fold change: 0.066

Sequence: RRIRERPPRLPRPRPRPFYNPRP
- shrunken log2 fold change: -0.306

Sequence: RRIRNRPPRLPRPRPRPNQTPRP
- shrunken log2 fold change: -0.0303

Sequence: RRIRTRPPRLPRPRPRPDHDPRP
- shrunken log2 fold change: 0.0257

Sequence: RRIRLRPPRLPRPRPRPCKQPRP
- shrunken log2 fold change: 0.0377

Sequence: RRIRYRPPRLPRPRPRPKMDPRP
- shrunken log2 fold change: 0.0399

Sequence: RRIRNRPPRLPRPRPRPKRRPRP
- shrunken log2 fold change: 0.00183

Sequence: RRIRLRPPRLPRPRPRPILHPRP
- shrunken log2 fold change: -0.231

Sequence: RRIRDRPPRLPRPRPRPCITPRP
- shrunken log2 fold change: -0.128

Sequence: RRIRERPPRLPRPRPRPEHTPRP
- shrunken log2 fold change: -0.154

Sequence: RRIRNRPPRLPRPRPRPNVWPRP
- shrunken log2 fold change: 0.0184

Sequence: RRIRARPPRLPRPRPRPWEMPRP
- shrunken log2 fold change: 0.00132

Sequence: RRIRPRPPRLPRPRPRPYCCPRP
- shrunken log2 fold change: -0.384

Sequence: RRIRERPPRLPRPRPRPNCEPRP
- shrunken log2 fold change: -0.155

Sequence: RRIRNRPPRLPRPRPRPWSAPRP
- shrunken log2 fold change: -0.304

Sequence: RRIRDRPPRLPRPRPRPFQHPRP
- shrunken log2 fold change: -0.202

Sequence: RRIRRRPPRLPRPRPRPIGDPRP
- shrunken log2 fold change: 0.257

Sequence: RRIRFRPPRLPRPRPRPKFQPRP
- shrunken log2 fold change: -0.14

Sequence: RRIRHRPPRLPRPRPRPICWPRP
- shrunken log2 fold change: 0.0429

Sequence: RRIRVRPPRLPRPRPRPNDSPRP
- shrunken log2 fold change: -0.326

Sequence: RRIRNRPPRLPRPRPRPNRAPRP
- shrunken log2 fold change: 0.0272

Sequence: RRIRFRPPRLPRPRPRPGAMPRP
- shrunken log2 fold change: 0.0505

Sequence: RRIRERPPRLPRPRPRPDYWPRP
- shrunken log2 fold change: -0.276

Sequence: RRIRERPPRLPRPRPRPCRSPRP
- shrunken log2 fold change: -0.0928

Sequence: RRIRWRPPRLPRPRPRPLSMPRP
- shrunken log2 fold change: -0.159

Sequence: RRIRPRPPRLPRPRPRPCQCPRP
- shrunken log2 fold change: -0.0627

Sequence: RRIRPRPPRLPRPRPRPACLPRP
- shrunken log2 fold change: 0.0505

Sequence: RRIRWRPPRLPRPRPRPIYMPRP
- shrunken log2 fold change: -0.118

Sequence: RRIRERPPRLPRPRPRPQKNPRP
- shrunken log2 fold change: -0.49

Sequence: RRIRARPPRLPRPRPRPAMVPRP
- shrunken log2 fold change: 0.109

Sequence: RRIRLRPPRLPRPRPRPYKMPRP
- shrunken log2 fold change: -0.851

Sequence: RRIRQRPPRLPRPRPRPLWYPRP
- shrunken log2 fold change: -0.367

Sequence: RRIRARPPRLPRPRPRPKGNPRP
- shrunken log2 fold change: 0.0299

Sequence: RRIRNRPPRLPRPRPRPVAVPRP
- shrunken log2 fold change: -0.0786

Sequence: RRIRQRPPRLPRPRPRPCLLPRP
- shrunken log2 fold change: -2.33

Sequence: RRIRARPPRLPRPRPRPHKWPRP
- shrunken log2 fold change: 0.192

Sequence: RRIRVRPPRLPRPRPRPLFIPRP
- shrunken log2 fold change: 0.101

Sequence: RRIRHRPPRLPRPRPRPYPSPRP
- shrunken log2 fold change: -0.457

Sequence: RRIRTRPPRLPRPRPRPYLWPRP
- shrunken log2 fold change: -0.284

Sequence: RRIRGRPPRLPRPRPRPKASPRP
- shrunken log2 fold change: 0.234

Sequence: RRIRERPPRLPRPRPRPHTGPRP
- shrunken log2 fold change: -1.1

Sequence: RRIRNRPPRLPRPRPRPTHFPRP
- shrunken log2 fold change: -0.659

Sequence: RRIRARPPRLPRPRPRPLEYPRP
- shrunken log2 fold change: -0.498

Sequence: RRIRERPPRLPRPRPRPKMRPRP
- shrunken log2 fold change: 0.962

Sequence: RRIRDRPPRLPRPRPRPGCRPRP
- shrunken log2 fold change: 0.398

Sequence: RRIRMRPPRLPRPRPRPWGAPRP
- shrunken log2 fold change: 0.698

Sequence: RRIRARPPRLPRPRPRPDPLPRP
- shrunken log2 fold change: 0.867

Sequence: RRIRGRPPRLPRPRPRPGQSPRP
- shrunken log2 fold change: -0.00151

Sequence: RRIRYRPPRLPRPRPRPYWEPRP
- shrunken log2 fold change: -0.0328

Sequence: RRIRQRPPRLPRPRPRPSECPRP
- shrunken log2 fold change: -0.0674

Sequence: RRIRRRPPRLPRPRPRPHLDPRP
- shrunken log2 fold change: 0.176

Sequence: RRIRFRPPRLPRPRPRPKRWPRP
- shrunken log2 fold change: 0.0556

Sequence: RRIRNRPPRLPRPRPRPWYNPRP
- shrunken log2 fold change: -0.00192

Sequence: RRIRHRPPRLPRPRPRPAFVPRP
- shrunken log2 fold change: 0.113

Sequence: RRIRARPPRLPRPRPRPRVGPRP
- shrunken log2 fold change: 0.352

Sequence: RRIRWRPPRLPRPRPRPLFDPRP
- shrunken log2 fold change: 0.0264

Sequence: RRIRQRPPRLPRPRPRPDCLPRP
- shrunken log2 fold change: -0.793

Sequence: RRIRVRPPRLPRPRPRPCMSPRP
- shrunken log2 fold change: -0.0664

Sequence: RRIRQRPPRLPRPRPRPWFCPRP
- shrunken log2 fold change: -0.282

Sequence: RRIRARPPRLPRPRPRPPGIPRP
- shrunken log2 fold change: 0.331

Sequence: RRIRHRPPRLPRPRPRPMTMPRP
- shrunken log2 fold change: -0.257

Sequence: RRIRPRPPRLPRPRPRPMGHPRP
- shrunken log2 fold change: -0.145

Sequence: RRIRSRPPRLPRPRPRPYQDPRP
- shrunken log2 fold change: 0.0107

Sequence: RRIRARPPRLPRPRPRPATDPRP
- shrunken log2 fold change: 1.53

Sequence: RRIRFRPPRLPRPRPRPALEPRP
- shrunken log2 fold change: 0.0373

Sequence: RRIRGRPPRLPRPRPRPYNVPRP
- shrunken log2 fold change: -0.126

Sequence: RRIRKRPPRLPRPRPRPNCKPRP
- shrunken log2 fold change: 0.495

Sequence: RRIRHRPPRLPRPRPRPDVCPRP
- shrunken log2 fold change: -0.258

Sequence: RRIRYRPPRLPRPRPRPDVMPRP
- shrunken log2 fold change: 0.0199

Sequence: RRIRVRPPRLPRPRPRPYLYPRP
- shrunken log2 fold change: -1.05

Sequence: RRIRKRPPRLPRPRPRPVSLPRP
- shrunken log2 fold change: 0.0505

Sequence: RRIRARPPRLPRPRPRPHWLPRP
- shrunken log2 fold change: 0.339

Sequence: RRIRYRPPRLPRPRPRPSDHPRP
- shrunken log2 fold change: -0.42

Sequence: RRIRIRPPRLPRPRPRPGLPPRP
- shrunken log2 fold change: 0.209

Sequence: RRIRTRPPRLPRPRPRPNDPPRP
- shrunken log2 fold change: -0.149

Sequence: RRIRFRPPRLPRPRPRPNENPRP
- shrunken log2 fold change: 0.00257

Sequence: RRIRMRPPRLPRPRPRPLFGPRP
- shrunken log2 fold change: 0.232

Sequence: RRIRWRPPRLPRPRPRPWHAPRP
- shrunken log2 fold change: 0.0362

Sequence: RRIRARPPRLPRPRPRPPSCPRP
- shrunken log2 fold change: 0.503

Sequence: RRIRYRPPRLPRPRPRPLGQPRP
- shrunken log2 fold change: -0.261

Sequence: RRIRSRPPRLPRPRPRPEKGPRP
- shrunken log2 fold change: 0.0255

Sequence: RRIRRRPPRLPRPRPRPDMHPRP
- shrunken log2 fold change: -0.203

Sequence: RRIRARPPRLPRPRPRPAYWPRP
- shrunken log2 fold change: 0.393

Sequence: RRIRDRPPRLPRPRPRPEPQPRP
- shrunken log2 fold change: 0.0781

Sequence: RRIRRRPPRLPRPRPRPNSQPRP
- shrunken log2 fold change: -0.154

Sequence: RRIRIRPPRLPRPRPRPDVWPRP
- shrunken log2 fold change: -0.109

Sequence: RRIRQRPPRLPRPRPRPWSMPRP
- shrunken log2 fold change: -0.0469

Sequence: RRIRERPPRLPRPRPRPFFGPRP
- shrunken log2 fold change: -0.217

Sequence: RRIRVRPPRLPRPRPRPDHEPRP
- shrunken log2 fold change: -0.0524

Sequence: RRIRGRPPRLPRPRPRPICPPRP
- shrunken log2 fold change: 0.114

Sequence: RRIRQRPPRLPRPRPRPPVVPRP
- shrunken log2 fold change: 0.126

Sequence: RRIRRRPPRLPRPRPRPLEPPRP
- shrunken log2 fold change: 0.582

Sequence: RRIRTRPPRLPRPRPRPCVQPRP
- shrunken log2 fold change: 0.0274

Sequence: RRIRTRPPRLPRPRPRPISSPRP
- shrunken log2 fold change: -0.0114

Sequence: RRIRMRPPRLPRPRPRPFYTPRP
- shrunken log2 fold change: -0.364

Sequence: RRIRARPPRLPRPRPRPAGIPRP
- shrunken log2 fold change: 0.156

Sequence: RRIRFRPPRLPRPRPRPKKFPRP
- shrunken log2 fold change: -0.128

Sequence: RRIRGRPPRLPRPRPRPSPIPRP
- shrunken log2 fold change: 0.411

Sequence: RRIRKRPPRLPRPRPRPTMCPRP
- shrunken log2 fold change: 0.00679

Sequence: RRIRQRPPRLPRPRPRPMKVPRP
- shrunken log2 fold change: 0.0879

Sequence: RRIRGRPPRLPRPRPRPPQKPRP
- shrunken log2 fold change: 1.35

Sequence: RRIRFRPPRLPRPRPRPVRTPRP
- shrunken log2 fold change: 0.227

Sequence: RRIRGRPPRLPRPRPRPTRGPRP
- shrunken log2 fold change: 0.808

Sequence: RRIRYRPPRLPRPRPRPMYWPRP
- shrunken log2 fold change: -0.451

Sequence: RRIRLRPPRLPRPRPRPMPWPRP
- shrunken log2 fold change: 0.276

Source: the supplement of paper PMC9112550, “Optimization of the antimicrobial peptide Bac7 by deep mutational scanning” (BMC Biology, 2022)
